Common to all, as to experiment: FACS
In general terms: In flow cytometry, cells or beads pass a laser one at a time.

Assay [1] concerns the target T1, cynomolgus macaque PVRIG expressed on HEK293 cells (cynomolgus macaque, UniProt A0A2K5WVV8 1-322).
T1 chain: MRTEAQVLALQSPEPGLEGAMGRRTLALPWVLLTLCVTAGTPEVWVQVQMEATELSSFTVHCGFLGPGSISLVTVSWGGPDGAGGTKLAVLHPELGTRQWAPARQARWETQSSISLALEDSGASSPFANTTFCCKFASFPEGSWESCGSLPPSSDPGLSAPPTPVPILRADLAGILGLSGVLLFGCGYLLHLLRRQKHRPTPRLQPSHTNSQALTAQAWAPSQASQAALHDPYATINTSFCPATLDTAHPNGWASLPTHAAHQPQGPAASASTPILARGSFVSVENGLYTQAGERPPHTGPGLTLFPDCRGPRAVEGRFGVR

Assay [2] concerns the target T2, cynomolgus TIGIT (cynomolgus macaque, UniProt A0A7N9I9V4 89-209).
The target in assay [3] is T1, cynomolgus macaque PVRIG expressed on ….
Assay [4] deals with T2, cynomolgus TIGIT. This is another data set of the same source.
Assay [5] concerns the target T3, TIGIT (human, UniProt Q495A1 22-141).
T3 chain: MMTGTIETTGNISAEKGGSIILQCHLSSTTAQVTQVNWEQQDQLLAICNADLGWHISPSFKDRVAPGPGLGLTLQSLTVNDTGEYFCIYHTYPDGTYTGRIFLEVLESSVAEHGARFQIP

In assay [6] the target is T3, TIGIT.
The next assay addresses T4, mouse TIGIT (mouse, UniProt P86176 29-148).
T4 chain: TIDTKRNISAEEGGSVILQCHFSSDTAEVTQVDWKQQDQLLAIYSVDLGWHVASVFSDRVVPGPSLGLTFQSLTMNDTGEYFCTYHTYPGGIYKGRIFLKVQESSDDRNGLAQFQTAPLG

Residue numbers refer to the chain shown, from its start. Read-outs that look alike come from different tables or passages of the source.

One may read the Kd as the constant that tells how readily two partners part at equilibrium. A low value points to a tighter complex.

T2 sequence (A0A7N9I9V4 entry or part of it): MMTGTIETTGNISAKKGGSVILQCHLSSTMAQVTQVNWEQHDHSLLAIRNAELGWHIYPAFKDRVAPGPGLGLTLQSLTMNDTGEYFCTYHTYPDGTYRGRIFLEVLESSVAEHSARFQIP

B1: CHA.7.518.1 (antibody, V domains shown)
VH: QVQLVQSGAEVKKPGASVKVSCKASGYTFTDYNINWVRQAPGQGLEWMGYIYPYIGGSGYAQKFQGRVTMTRDTSTSTVYMELSSLRSEDTAVYYCAREDKTARNAMDYWGQGTLVTVSS
VL: DIQMTQSPSSLSASVGDRVTITCRVSENIYSNLAWYQQKPGKAPKLLIYEATNLAEGVPSRFSGSGSGTDFTLTISSLQPEDFATYYCQHFWGTPYTFGQGTKLEIKR
As for B1, in assay [1], binding was characterised by a dissociation constant (Kd) of 0.35 nM.

B2: BM26 (antibody, V domains shown)
VH: EVQLQQSGPELVKPGSSVKMSCKASGYTFSSYVMHWVKQKPGQGLEWIGYIDPYNDGAKYNEKFKGKATLTSDKSSSTAYMELSSLTSEDSAVYYCARGGPYGWYFDVWGAGTTVTVSS
VL: DIQMTQSPASLSASVGETVTITCRASEHIYSYLSWYQQKQGKSPQLLVYNAKTLAEGVPSRFSGSGSGTQFSLKINSLQPEDFGTYYCQHHFGSPLTFGAGTTLELKR
B2 gave a Kd in the assay with cynomolgus TIGIT [2] of 1.69 nM. This lies in the single-digit nanomolar range.

B3: PVRIG (COM701) (antibody, V domains shown)
VH: QVQLVQSGAEVKKPGASVKVSCKASGYAFTNYLIEWVRQAPGQGLEWIGVINPGSGGIYYAQKFQGRVTMTADTSTSTVYMELSSLRSEDTAVYYCARSETHDTWFAYWGQGTLVTVSS
VL: DIQMTQSPSSLSASVGDRVTITCKASQSVRIAVAWFQQKPGKAPKALIYLASTRHTGVPSRFSGSGSGTDFTLTISSVQPEDFATYYCLQHWNYPYTFGQGTKLEIKR
Molecule B3 came in with a Kd in assay [3] of 0.248 nM. This lies in the sub-nanomolar range.

B4: CPA.9.547.13 (antibody, V domains shown)
VH: EVQLVESGGGLVQPGGSLRLSCAASGFTFSSYIMSWVRQAPGKGLEWVATISGGGTNTYYADSVKGRFTISRDNSKNTLYLQMNSLRAEDTAVYYCAKWLLSYYAMDYWGQGTLVTVSS
VL: DIQMTQSPSSLSASVGDRITITCRASQNINVWLTWYQQKPGKAPKLLIYKASKSHTGVPSRFSGSGSGTDFTLTISSLQPEDFATYYCQQGQSYPYTFGQGTKLEIKR
Take B4: the Kd in the assay with cynomolgus TIGIT [4] came out at 1.67 nM; in the assay with TIGIT [5], 0.71 nM.

B5: CHA.9.547.7 (antibody, V domains shown)
VH: B4 VH with A49S
VL: B4 VL with I19V
As to B5, the dissociation constant (Kd) with cynomolgus TIGIT [2] stood at 1.54 nM; with TIGIT [6], 1.82 nM.

B6: CPA.9.083 (antibody, V domains shown)
VH: EVQLVETGGGLIQPGRSLRLSCAASGFTFSSYAMHWVRQAPGKGLEWVAVISYDGTPVYYADSVKGRFTISRDNSKNTLYLQMNSLRAEDTAVYYCARDPLPLHYYGMDVWGQGTTVTVSS
VL: QSALTQPRSASGNPGQRVTISCSGSSSNMGRRPVNWYQQIPGTAPKLLIYSQNQRPSGVPDRFSGSQSGTSASLTISGLQSEDEAEYFCAVWDGDRRSLQLGGGTQLAVLG
Regarding B6, in the assay with mouse TIGIT, the Kd amounted to 0.7 nM.

B7: CPA.9.086 (antibody, V domains shown)
VH: B6 VH with D54A, T56E, P57V, V58K
VL: B6 VL with G94D, D95I, R96G, S98V
Regarding B7, in the assay with mouse TIGIT, binding was put at a Kd of 1.32 nM.

The record behind these values is patent US20250136710A1 (published 2025).
